Blank lines part the entries; values can stand above or below the binder they belong to.
How the values were obtained:
Experiment in all cases: holdup assay
Set-up in all cases: key: below the threshold = too weak to quantify, mostly under pKd 3.1 to 4
Inadl_10, Q8NI35 = target: Inadl_10, Q8NI35
NHERF4_2, Q86UT5 = target: NHERF4_2, Q86UT5
GRIP1_4, Q9Y3R0 = target: T1, GRIP1_4, Q9Y3R0
T1 sequence (Q9Y3R0 467-571, limits assumed, looked up): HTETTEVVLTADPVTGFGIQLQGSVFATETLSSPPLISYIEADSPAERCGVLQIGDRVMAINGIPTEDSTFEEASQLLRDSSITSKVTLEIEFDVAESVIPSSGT

FRMPD2_1, Q68DX3 = target: FRMPD2_1, Q68DX3
FRMPD2_1, Q68DX3, sequence (Q68DX3 770-861): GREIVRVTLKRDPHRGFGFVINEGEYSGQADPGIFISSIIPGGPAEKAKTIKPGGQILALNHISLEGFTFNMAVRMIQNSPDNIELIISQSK

Inadl_4, Q8NI35 = target: Inadl_4, Q8NI35
Inadl_4, Q8NI35, sequence (Q8NI35 547-651): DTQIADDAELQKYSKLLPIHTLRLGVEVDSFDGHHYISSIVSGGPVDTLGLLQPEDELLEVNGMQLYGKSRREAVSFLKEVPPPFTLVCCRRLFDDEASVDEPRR

MPDZ_5, O75970 = target: T2, MPDZ_5, O75970
T2 sequence (O75970 695-796, limits assumed, looked up): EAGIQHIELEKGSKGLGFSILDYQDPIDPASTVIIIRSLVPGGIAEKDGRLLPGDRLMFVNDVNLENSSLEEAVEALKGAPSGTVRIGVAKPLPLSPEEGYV

FRMPD4, Q14CM0 = target: FRMPD4, Q14CM0
FRMPD4, Q14CM0, sequence (Q14CM0 67-160): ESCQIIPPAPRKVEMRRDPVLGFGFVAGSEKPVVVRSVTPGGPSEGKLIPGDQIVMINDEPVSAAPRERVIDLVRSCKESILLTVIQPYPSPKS

GRIP1_5, Q9Y3R0 = target: T3, GRIP1_5, Q9Y3R0
T3 sequence (Q9Y3R0 568-668, limits assumed, looked up): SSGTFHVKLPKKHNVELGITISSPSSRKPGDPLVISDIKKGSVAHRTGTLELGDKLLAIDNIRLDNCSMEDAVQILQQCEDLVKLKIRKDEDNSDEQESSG

PDZRN4_1, Q6ZMN7 = target: PDZRN4_1, Q6ZMN7
PDZRN4_1, Q6ZMN7, sequence (Q6ZMN7 213-318): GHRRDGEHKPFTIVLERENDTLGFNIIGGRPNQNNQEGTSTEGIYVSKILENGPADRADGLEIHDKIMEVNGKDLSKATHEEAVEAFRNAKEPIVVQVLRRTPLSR

SHANK1, Q9Y566 = target: T4, SHANK1, Q9Y566
T4 sequence (Q9Y566 658-767, limits assumed, looked up): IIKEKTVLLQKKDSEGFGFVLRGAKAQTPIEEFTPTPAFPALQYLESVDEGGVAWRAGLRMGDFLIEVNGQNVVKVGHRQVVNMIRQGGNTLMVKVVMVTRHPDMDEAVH

MAGI2_3, Q86UL8 = target: MAGI2_3, Q86UL8
MAGI2_3, Q86UL8, sequence (Q86UL8 600-682): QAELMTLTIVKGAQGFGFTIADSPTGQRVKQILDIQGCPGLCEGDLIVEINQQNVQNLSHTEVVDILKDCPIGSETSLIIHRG

SIPA1L2, Q9P2F8 = target: T5, SIPA1L2, Q9P2F8
T5 sequence (Q9P2F8 945-1036, limits assumed, looked up): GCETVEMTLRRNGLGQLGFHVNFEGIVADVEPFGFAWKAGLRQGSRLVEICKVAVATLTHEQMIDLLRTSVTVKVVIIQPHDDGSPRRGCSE

FRMPD3, Q5JV73 = target: FRMPD3, Q5JV73
FRMPD3, Q5JV73, sequence (Q5JV73 12-100): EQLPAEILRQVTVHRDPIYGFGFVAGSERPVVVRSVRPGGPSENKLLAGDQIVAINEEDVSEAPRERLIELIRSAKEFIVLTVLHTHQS

MAGI3_2, Q5TCQ9 = target: MAGI3_2, Q5TCQ9
MAGI3_2, Q5TCQ9, sequence (Q5TCQ9 398-503): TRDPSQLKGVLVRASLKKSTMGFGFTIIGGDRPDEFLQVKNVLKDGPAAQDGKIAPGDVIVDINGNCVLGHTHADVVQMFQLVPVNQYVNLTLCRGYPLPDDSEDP

LNX1_3, Q8TBB1 = target: LNX1_3, Q8TBB1
LNX1_3, Q8TBB1, sequence (Q8TBB1 500-596): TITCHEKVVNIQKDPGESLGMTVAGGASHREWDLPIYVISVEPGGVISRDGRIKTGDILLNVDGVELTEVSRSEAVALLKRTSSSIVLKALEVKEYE

APBA1_2, Q02410 = target: T6, APBA1_2, Q02410
T6 sequence (Q02410 742-832, limits assumed, looked up): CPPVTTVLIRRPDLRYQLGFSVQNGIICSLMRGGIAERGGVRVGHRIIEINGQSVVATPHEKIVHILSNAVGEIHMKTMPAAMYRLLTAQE

DLG2_3, Q15700 = target: DLG2_3, Q15700
NOS1, P29475 = target: NOS1, P29475
NOS1, P29475, sequence (P29475 9-101): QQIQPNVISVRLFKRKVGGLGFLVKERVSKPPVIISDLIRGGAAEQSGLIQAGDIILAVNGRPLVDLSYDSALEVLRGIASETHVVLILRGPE

LNX2_2, Q8N448 = target: T7, LNX2_2, Q8N448
T7 sequence (Q8N448 334-432, limits assumed, looked up): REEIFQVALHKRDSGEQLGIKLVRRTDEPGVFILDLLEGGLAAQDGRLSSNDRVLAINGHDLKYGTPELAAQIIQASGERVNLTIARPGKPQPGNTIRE

PTPN3, P26045 = target: PTPN3, P26045
PTPN3, P26045, sequence (P26045 505-587): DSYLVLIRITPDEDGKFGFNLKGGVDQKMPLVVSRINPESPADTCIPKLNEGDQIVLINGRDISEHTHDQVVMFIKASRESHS

PARD3B_1, Q8TEW8 = target: T8, PARD3B_1, Q8TEW8
T8 sequence (Q8TEW8 196-299, limits assumed, looked up): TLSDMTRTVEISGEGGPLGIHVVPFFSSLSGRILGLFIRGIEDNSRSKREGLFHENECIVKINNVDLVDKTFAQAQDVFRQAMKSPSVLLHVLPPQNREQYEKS

Inadl_6, Q8NI35 = target: Inadl_6, Q8NI35
Inadl_6, Q8NI35, sequence (Q8NI35 1058-1167): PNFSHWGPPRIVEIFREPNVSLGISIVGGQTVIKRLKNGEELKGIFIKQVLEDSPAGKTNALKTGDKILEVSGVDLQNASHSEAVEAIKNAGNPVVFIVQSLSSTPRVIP

PDZD7_3, Q9H5P4 = target: T9, PDZD7_3, Q9H5P4
T9 sequence (Q9H5P4 857-944, limits assumed, looked up): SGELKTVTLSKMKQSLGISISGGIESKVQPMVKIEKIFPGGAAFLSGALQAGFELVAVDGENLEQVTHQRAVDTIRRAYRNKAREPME

Inadl_1, Q8NI35 = target: Inadl_1, Q8NI35
Inadl_1, Q8NI35, sequence (Q8NI35 113-229): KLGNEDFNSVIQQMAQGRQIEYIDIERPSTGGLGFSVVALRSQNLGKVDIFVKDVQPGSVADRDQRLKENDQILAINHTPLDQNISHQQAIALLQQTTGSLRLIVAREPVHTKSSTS

PDLIM1, O00151 = target: PDLIM1, O00151
PDLIM1, O00151, sequence (O00151 1-87): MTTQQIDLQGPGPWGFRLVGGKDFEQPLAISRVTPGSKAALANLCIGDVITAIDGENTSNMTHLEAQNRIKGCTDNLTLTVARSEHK

FRMPD1, Q5SYB0 = target: T10, FRMPD1, Q5SYB0
T10 sequence (Q5SYB0 52-145, limits assumed, looked up): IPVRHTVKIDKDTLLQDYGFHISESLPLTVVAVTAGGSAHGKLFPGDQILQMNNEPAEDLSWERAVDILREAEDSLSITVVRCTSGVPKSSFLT

DFNB31_3, Q9P202 = target: T11, DFNB31_3, Q9P202
T11 sequence (Q9P202 811-907, limits assumed, looked up): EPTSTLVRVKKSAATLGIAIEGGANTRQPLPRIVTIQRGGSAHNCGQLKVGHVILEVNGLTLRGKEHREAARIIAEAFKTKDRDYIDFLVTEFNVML

[1] = plain residues with an end cap or a label only (N-terminal biotin on a linker: ahx)
[2] = plain residues with an end cap or a label only (N-terminal biotin on a linker: ttds)

NHERF4_2, Q86UT5, sequence (Q86UT5 220-308): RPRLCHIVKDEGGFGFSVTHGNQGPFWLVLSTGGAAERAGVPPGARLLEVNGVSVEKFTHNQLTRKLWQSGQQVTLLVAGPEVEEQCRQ
Inadl_10, Q8NI35, sequence (Q8NI35 1673-1763): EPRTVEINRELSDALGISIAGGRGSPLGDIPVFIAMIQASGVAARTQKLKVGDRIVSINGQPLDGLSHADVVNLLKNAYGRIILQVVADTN

pKd (Inadl_10, Q8NI35; [1]): 3.57
pKd (NHERF4_2, Q86UT5; [1]): below the threshold
pKd (GRIP1_4, Q9Y3R0; [1]): below the threshold
pKd (FRMPD2_1, Q68DX3; [1]): below the threshold
pKd (Inadl_4, Q8NI35; [1]): below the threshold
pKd (MPDZ_5, O75970; [1]): 3.49
pKd (FRMPD4, Q14CM0; [1]): 3.5
pKd (GRIP1_5, Q9Y3R0; [1]): 3.55
pKd (PDZRN4_1, Q6ZMN7; [1]): 3.5
pKd (SHANK1, Q9Y566; [1]): below the threshold
pKd (MAGI2_3, Q86UL8; [1]): 3.49
pKd (SIPA1L2, Q9P2F8; [1]): below the threshold
pKd (FRMPD3, Q5JV73; [1]): below the threshold
pKd (MAGI3_2, Q5TCQ9; [1]): 3.58
pKd (LNX1_3, Q8TBB1; [1]): below the threshold
pKd (APBA1_2, Q02410; [1]): below the threshold
pKd (DLG2_3, Q15700; [1]): 3.53
pKd (NOS1, P29475; [1]): below the threshold
pKd (LNX2_2, Q8N448; [1]): 3.87
pKd (PTPN3, P26045; [1]): below the threshold
pKd (PARD3B_1, Q8TEW8; [1]): 3.55
pKd (Inadl_6, Q8NI35; [1]): below the threshold
pKd (PDZD7_3, Q9H5P4; [1]): 4.71
pKd (Inadl_1, Q8NI35; [1]): below the threshold
pKd (PDLIM1, O00151; [1]): below the threshold
pKd (FRMPD1, Q5SYB0; [1]): below the threshold
pKd (DFNB31_3, Q9P202; [1]): below the threshold
Binder: HNAFLSVTTV [PDZRN4, Q6ZMN7]

pKd (Inadl_10, Q8NI35; [2]): below the threshold
pKd (NHERF4_2, Q86UT5; [2]): below the threshold
pKd (GRIP1_4, Q9Y3R0; [2]): below the threshold
pKd (FRMPD2_1, Q68DX3; [2]): below the threshold
pKd (Inadl_4, Q8NI35; [2]): below the threshold
pKd (MPDZ_5, O75970; [2]): below the threshold
pKd (FRMPD4, Q14CM0; [2]): below the threshold
pKd (GRIP1_5, Q9Y3R0; [2]): below the threshold
pKd (PDZRN4_1, Q6ZMN7; [2]): 4.5
pKd (SHANK1, Q9Y566; [2]): below the threshold
pKd (MAGI2_3, Q86UL8; [2]): below the threshold
pKd (SIPA1L2, Q9P2F8; [2]): below the threshold
pKd (FRMPD3, Q5JV73; [2]): below the threshold
pKd (MAGI3_2, Q5TCQ9; [2]): 4.33
pKd (LNX1_3, Q8TBB1; [2]): below the threshold
pKd (APBA1_2, Q02410; [2]): 4.09
pKd (DLG2_3, Q15700; [2]): 4.35
pKd (NOS1, P29475; [2]): 3.71
pKd (LNX2_2, Q8N448; [2]): below the threshold
pKd (PTPN3, P26045; [2]): 4.86
pKd (PARD3B_1, Q8TEW8; [2]): below the threshold
pKd (Inadl_6, Q8NI35; [2]): below the threshold
pKd (PDZD7_3, Q9H5P4; [2]): 4.45
pKd (Inadl_1, Q8NI35; [2]): below the threshold
pKd (PDLIM1, O00151; [2]): below the threshold
pKd (FRMPD1, Q5SYB0; [2]): below the threshold
pKd (DFNB31_3, Q9P202; [2]): below the threshold
Binder: EVVHTPETSV [SLC16A3, O15427]

Reference: article PMC9482650, “Quantitative fragmentomics allow affinity mapping of interactomes” (Nature Communications, 2022)
